Kd, koff and kon data for two molecules are collected here from patent US20240059770A1 (Eli Lilly, published 2024).

The experiment concerns the target T1, human oxyntomodulin (53-89) (human).
T1 construct: also called synthetic human oxyntomodulin
T1 peptide: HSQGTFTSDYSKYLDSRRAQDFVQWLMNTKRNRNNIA
Kind of experiment: SPR (Biacore T100), antibody captured by anti-mouse IgG, oxyntomodulin 1.1-90 nmol/L as analyte, 1:1 model. On the procedure:
Kinetic analysis and binding specificity of the N-Terminal Antibody and the C-Terminal Antibody are determined by surface plasmon resonance using Biacore T100 (GE Healthcare Life Sciences). Goat anti-mouse IgG antibody (Southern Biotech) is immobilized on a Series S CM5 sensor chip and used to capture approximately 1500 response units of anti-oxyntomodulin IgG. Binding to duplicate injections of various concentrations of human oxyntomodulin (SEQ ID NO: 25) (1.1 to 90 nmol/L) diluted in running buffer (HEPES buffered saline containing 3 mmol/L EDTA and 0.05% Tween) and 22.5 nmol/L of either human glicentin span (49-89) (SEQ ID NO: 29) or human glucagon (53-81) (SEQ ID NO: 30) peptides are measured with a flow rate of […]. Kinetic constants are determined using 1:1 binding model with the T100 Evaluation software.
Using Biacore analysis of the N-Terminal Antibody, the equilibrium dissociation constant is 1.5×10⁻¹⁰ mol/L (Table 2).
In general terms: In SPR one partner is held on a chip, and binding of the other changes the refractive index at the surface.

B1: Anti-Human Oxyntomodulin N-Terminal Antibody (antibody, V domains shown)
VH: QIQLVQSGPELKKPGETVKISCKASGYTFTDYAFSWVKQAPGKGLKWMGWITTNTGEATYADDFKGRFAFSLETSASTAYLQISNLKNEDTATYFCARETEYGDSSWFGHWGQGTLVTVSA
VL: DIVLTQSPASLAVSLGQRATISCRASESVDGWGNSFMHWYQQKPGQPPKLLIYLATYRVAGIPARFSGSGSRTDFTLTINPVEADDVATYYCMQSSEDPYTFGGGTKLEIKR
notes: In SPR it was captured as IgG by goat anti-mouse IgG; In the sandwich immunoassay it was ruthenium-labelled; also called detection antibody
Consider B1, for which the affinity, expressed as Kd, was 150 pM; the koff (in general, the rate constant with which the complex falls apart) turned out to be 0.001 s⁻¹; the kon – broadly, a measure of how fast the partners come together – stood at 7.2e+06 M⁻¹ s⁻¹.

B2: Anti-Human Oxyntomodulin C-Terminal Antibody (antibody, V domains shown)
VH: QVQVQQSGAELVMPGTSVKLSCKASGYNFTNYWLHWVKQRPGQGLEWIGELDPEYGFANYNQKFKGKATLTVDKSSSTAYMQLSSLTSEDSAVYYCSAGFMDYWGQGTSVTVSS
VL: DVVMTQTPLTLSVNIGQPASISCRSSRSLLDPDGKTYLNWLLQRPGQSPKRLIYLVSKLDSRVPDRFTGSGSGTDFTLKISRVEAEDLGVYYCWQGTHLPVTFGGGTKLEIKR
notes: In SPR it was captured as IgG by goat anti-mouse IgG; In the sandwich immunoassay it was biotin-labelled and held on streptavidin plates; also called capture antibody
As to B2, the dissociation constant Kd (usually the equilibrium constant for the complex coming apart) was 83 pM, the koff is 0.00086 s⁻¹ and the kon amounted to 1e+07 M⁻¹ s⁻¹.
